Experimental data: patent publication US20240209076A1 (KODIAK SCIENCES, published 2024)
Where a chain is given by its changes, count along the chain named. In names and notes the source's numbering stands.

B1: anti-IL-6 antibody, heavy chain WT / light chain M32L, M50D, N52S, M88Q (antibody, IgG1, V domains shown)
VH: EVQLVESGGGLVQPGGSLRLSCAASGFTFSPFAMSWVRQAPGKGLEWVAKISPGGSWTYYSDTVTGRFTFSLDTSKSTAYLQMNSLRAEDTAVYYCARQLWGYYALDIWGQGTLVTVSS
VL: DIQLTQSPSSLSASVGDRVTITCSASISVSYLYWYQQKPGKAPKLLIYDDSSLASGVPSRFSGSGSGTDFTLTISSLQPEDFATYYCQQWSGYPYTFGQGTKVEIK
notes: Full IgG1 (Expi293); VL = variant III
B2: anti-IL-6 antibody, heavy chain WT / light chain M32L, M50D, N52S, M88Q (antibody, human IgG1, V domains shown)
VH: B1 VH
VL: B1 VL
notes: Human IgG1
B3: anti-IL-6 antibody, heavy chain G66D / light chain M32L, M50D, N52S, M88Q (antibody, human IgG1, V domains shown)
VH: B1 VH with G66D
VL: B1 VL
notes: Human IgG1
B4: anti-IL-6 antibody, heavy chain G66D / light chain M32L, M50D, N52S, M88Q (antibody, IgG1, V domains shown)
VH: B1 VH with G66D
VL: B1 VL
notes: as for B1
B5: Anti-IL-6 antibody, heavy chain S35H, G66D, L100Q / light chain M32L, M50D, N52S, M88Q (antibody, IgG1, V domains shown)
VH: B1 VH with S35H, G66D, L100Q
VL: B1 VL
notes: IgG1; variable domains only; VL is variant III
B6: Anti-IL-6 antibody, heavy chain S35H, G66D, L100V / light chain M32L, M50D, N52S, M88Q (antibody, IgG1, V domains shown)
VH: B1 VH with S35H, G66D, L100V
VL: B1 VL
notes: as for B5
B7: anti-IL-6 antibody, heavy chain T63E, G66D / light chain M32L, M50D, N52S, M88Q (antibody, human IgG1, V domains shown)
VH: B1 VH with T63E, G66D
VL: B1 VL
notes: Human IgG1
B8: anti-IL-6 antibody, heavy chain T63Q, G66D / light chain M32L, M50D, N52S, M88Q (antibody, IgG1, V domains shown)
VH: B1 VH with T63Q, G66D
VL: B1 VL
notes: as for B1
B9: Anti-IL-6 antibody, heavy chain S35H, G66D, L100S / light chain M32L, M50D, N52S, M88Q (antibody, IgG1, V domains shown)
VH: B1 VH with S35H, G66D, L100S
VL: B1 VL
notes: as for B5
B10: Anti-IL-6 antibody, heavy chain S35H, G66D, L100K / light chain M32L, M50D, N52S, M88Q (antibody, IgG1, V domains shown)
VH: B1 VH with S35H, G66D, L100K
VL: B1 VL
notes: as for B5
B11: anti-IL-6 antibody, heavy chain T63E, G66D / light chain M32L, M50D, N52S, M88Q (antibody, IgG1, V domains shown)
VH: B1 VH with T63E, G66D
VL: B1 VL
notes: as for B1

How the values were obtained:
[1] = target: T1, human IL-6 (human, UniProt P05231 30-212); experiment: SPR Biacore, purified Ab on Protein A chip, 37 C
T1 construct: IL-6 flowed over captured antibodies
Method: (§1) Antibodies were captured on a Protein A chip (GE) by injecting 1:20 cell supernatant dilutions at 10 μL/min for 60 seconds. […] The sensor chip was regenerated by a 60 seconds injection of 10 mM Glycine pH 1.7 at the flow rate of 50 μL/min. […] For this setup, 1 μg/mL of purified antibody was injected over a Protein A chip at 10 μL/min for 25 seconds. […] The sensor chip was regenerated by a 60 seconds injection of 10 mM Glycine pH 1.7 at flow rate of 50 μL/min. Data analysis for supernatant and purified samples were performed using BIAevaluation software (GE). All sensorgrams were double reference subtracted and fit using a 1:1 Langmuir binding model.
T1 sequence (P05231 30-212 limits assumed): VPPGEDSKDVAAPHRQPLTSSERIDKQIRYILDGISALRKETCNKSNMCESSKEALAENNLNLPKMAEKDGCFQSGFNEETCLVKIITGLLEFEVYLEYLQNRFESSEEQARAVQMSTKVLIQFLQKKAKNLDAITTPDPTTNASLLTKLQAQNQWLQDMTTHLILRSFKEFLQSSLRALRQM

[2] = target: T1, human IL-6; experiment: SPR Biacore, supernatant Ab on Protein A chip, 37 C
[3] = target: T2, human IL-6 (human, UniProt P05231 30-212); experiment: SPR (Biacore), purified antibody on Protein A chip, IL-6 flowed, 37 C
Method: as §1
T2 sequence (P05231 30-212 limits assumed): as above

[4] = target: T2, human IL-6; experiment: SPR (Biacore), supernatant antibody on Protein A chip, IL-6 flowed, 37 C
[5] = target: T3, human IL-6 (human, UniProt P05231 30-212); experiment: SPR Biacore, supernatant, Protein A capture, 37 C
How it was run: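 Antibodies from 1:20-diluted culture supernatant in HBS-EP+ were captured on a Protein A chip at 37 C, with 10 mM glycine pH 1.7 regeneration. Sensorgrams were double-reference subtracted and fitted to a 1:1 Langmuir model.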
T3 sequence (P05231 30-212 limits assumed): as above

[6] = target: T3, human IL-6; experiment: SPR Biacore, purified, Protein A capture, 37 C
Method: as §1

| Binder | Kd [1] | koff [1] | kon [1] | Kd [2] | koff [2] | kon [2] | Kd [5] | koff [5] | kon [5] | Kd [6] | koff [6] | kon [6] | also measured |
| --- | --- | --- | --- | --- | --- | --- | --- | --- | --- | --- | --- | --- | --- |
| B1 | 286 pM | 0.000319 s⁻¹ | 1.12e+06 M⁻¹ s⁻¹ | 611 pM | 0.000414 s⁻¹ | 677000 M⁻¹ s⁻¹ |  |  |  |  |  |  |  |
| B2 |  |  |  |  |  |  |  |  |  |  |  |  | Kd [3]: 286 pM; koff [3]: 0.000319 s⁻¹; kon [3]: 1.12e+06 M⁻¹ s⁻¹; Kd [4]: 611 pM; koff [4]: 0.000414 s⁻¹; kon [4]: 677000 M⁻¹ s⁻¹ |
| B3 |  |  |  |  |  |  |  |  |  |  |  |  | Kd [3]: 244 pM; koff [3]: 0.000412 s⁻¹; kon [3]: 1.69e+06 M⁻¹ s⁻¹; Kd [4]: 296 pM; koff [4]: 0.000483 s⁻¹; kon [4]: 1.63e+06 M⁻¹ s⁻¹ |
| B4 | 244 pM | 0.000412 s⁻¹ | 1.69e+06 M⁻¹ s⁻¹ | 296 pM | 0.000483 s⁻¹ | 1.63e+06 M⁻¹ s⁻¹ |  |  |  |  |  |  |  |
| B5 |  |  |  |  |  |  | 148 pM | 0.000734 s⁻¹ | 4.97e+06 M⁻¹ s⁻¹ | 149 pM | 0.000336 s⁻¹ | 2.26e+06 M⁻¹ s⁻¹ |  |
| B6 |  |  |  |  |  |  | 184 pM | 0.000922 s⁻¹ | 5.01e+06 M⁻¹ s⁻¹ | 238 pM | 0.000385 s⁻¹ | 1.62e+06 M⁻¹ s⁻¹ |  |
| B7 |  |  |  |  |  |  |  |  |  |  |  |  | Kd [3]: 198 pM; koff [3]: 0.000327 s⁻¹; kon [3]: 1.65e+06 M⁻¹ s⁻¹; Kd [4]: 242 pM; koff [4]: 0.000485 s⁻¹; kon [4]: 2e+06 M⁻¹ s⁻¹ |
| B8 | 201 pM | 0.000341 s⁻¹ | 1.69e+06 M⁻¹ s⁻¹ | 259 pM | 0.000461 s⁻¹ | 1.78e+06 M⁻¹ s⁻¹ |  |  |  |  |  |  |  |
| B9 |  |  |  |  |  |  | 114 pM | 0.000913 s⁻¹ | 8.03e+06 M⁻¹ s⁻¹ | 117 pM | 0.000424 s⁻¹ | 3.61e+06 M⁻¹ s⁻¹ |  |
| B10 |  |  |  |  |  |  | 191 pM | 0.000822 s⁻¹ | 4.29e+06 M⁻¹ s⁻¹ | 188 pM | 0.000279 s⁻¹ | 1.49e+06 M⁻¹ s⁻¹ |  |
| B11 | 198 pM | 0.000327 s⁻¹ | 1.65e+06 M⁻¹ s⁻¹ | 242 pM | 0.000485 s⁻¹ | 2e+06 M⁻¹ s⁻¹ |  |  |  |  |  |  |  |
